Laboratory results from ChEMBL document CHEMBL2074411.

Substrate: NCCc1ccc(O)c(O)c1
Assay: cells, lysate or membranes named

B1: Solute carrier family 22 member 2 (Rattus norvegicus) (protein)
chain: MSTVDDILEHIGEFHLFQKQTFFLLALLSGAFTPIYVGIVFLGFTPDHHCWSPGAAKLSQRCGWSQAEELNYTVPGLGPSDEASFLSQCMRYEVDWNQSTLDCVDPLSSLAADRNQLPLGPCEHGWVYNTPGSSIVTEFNLVCAHSWMLDLFQSVVNVGFFIGAMMIGYLADRFGRKFCLLVTILINAISGALMAISPNYAWMLVFRFLQGLVSKAGWLIGYILITEFVGLGYRRMVGICYQIAFTVGLLILAGVAYVIPNWRWLQFAVTLPNFCFLLYFWCIPESPRWLISQNKIVKAMKIIKHIAKKNGKSVPVSLQNLTPDEDAGKKLNPSFLDLVRTPQIRKHTLILMYNWFTSSVLYQGLIMHMGLAGDNIYLDFFYSALVEFPAAFIIILTIDRVGRRYPWAVSNMVAGAACLASVFIPDDLQWLKITIACLGRMGITMAYEMVCLVNAELYPTYIRNLGVLVCSSMCDIGGIITPFLVYRLTDIWMEFPLVVFAVVGLVAGALVLLLPETKGKALPETIEDAENMQRPRKKKEKRIYLQVKQADRPLS
How did the Km turn out when B1 was run?
The Km was 2300 µM.
